To fix the notation:
B1: Retinoic acid receptor RXR-alpha, residues 132 to 208; numbered along this chain, P19793 (parent)
chain: KHICAICGDRSSGKHYGVYSCEGCKGFFKRTVRKDLTYTCRDNKDCLIDKRQRNRCQYCRYQKCLAMGMKREAVQEE

± gives the uncertainty stated by the source.

This note sets out measurements from the Human Domainome abundance scans (Beltran et al. 2025).

The data set covers variants of B1. The data set can be described thus: abundance fitness (aPCA) (normalised: wild type 0, dead -1); higher = more abundant; growth selection in yeast, the domain comes from the species named. Particulars: Homo sapiens.
KHICAICGDRSSGKHYGVYSCEGCKGFFKRTVRKDLTYTCRDNKDCLIDKRQRNRCQYCRYQKCMAMGMKREAVQEE [L65M]: the abundance fitness was -0.058 ± 0.041.

Turning to KHICAICGDRSSGKHYGVYSCEGCKGFFKRTVRKDLTYTCRDNKDCLIDKRQRNRCQYCRYQKCDAMGMKREAVQEE [L65D], the abundance fitness is -0.133 ± 0.048.

Take KHICAICGDRSSGKHYGVYSCEGCKGFFKRTVRKDLTYTCRDNKDCLIDKRQRNRCQYCRYQKCSAMGMKREAVQEE [L65S]: the abundance fitness is -0.061 ± 0.035.

For KHICAICGDRSSGKHYGVYSCEGCKGFFKRTVRKDLTYTCRDNKDCLIDKRQRNRCQYCRYQKCKAMGMKREAVQEE [L65K], the abundance fitness was -0.008 ± 0.046.

Take KHICAICGDRSSGKHYGVYSCEGCKGFFKRTVRKDLTYTCRDNKDCLIDKRQRNRCQYCRYQKCTAMGMKREAVQEE [L65T]: the abundance fitness is 0.057 ± 0.053.

Consider KHICAICGDRSSGKHYGVYSCEGCKGFFKRTVRKDLTYTCRDNKDCLIDKRQRNRCQYCRYQKCCAMGMKREAVQEE [L65C], for which the abundance fitness was determined as 0.044 ± 0.047.

KHICAICGDRSSGKHYGVYSCEGCKGFFKRTVRKDLTYTCRDNKDCLIDKRQRNRCQYCRYQKCYAMGMKREAVQEE [L65Y]: the abundance fitness stood at 0.015 ± 0.078.

Regarding KHICAICGDRSSGKHYGVYSCEGCKGFFKRTVRKDLTYTCRDNKDCLIDKRQRNRCQYCRYQKCRAMGMKREAVQEE [L65R], the abundance fitness is -0.111 ± 0.032.

For KHICAICGDRSSGKHYGVYSCEGCKGFFKRTVRKDLTYTCRDNKDCLIDKRQRNRCQYCRYQKCFAMGMKREAVQEE [L65F], the abundance fitness is -0.036 ± 0.056.

KHICAICGDRSSGKHYGVYSCEGCKGFFKRTVRKDLTYTCRDNKDCLIDKRQRNRCQYCRYQKCHAMGMKREAVQEE [L65H]: the abundance fitness is -0.078 ± 0.071.

For the variant KHICAICGDRSSGKHYGVYSCEGCKGFFKRTVRKDLTYTCRDNKDCLIDKRQRNRCQYCRYQKCWAMGMKREAVQEE [L65W], the abundance fitness is -0.108 ± 0.042.

For the variant KHICAICGDRSSGKHYGVYSCEGCKGFFKRTVRKDLTYTCRDNKDCLIDKRQRNRCQYCRYQKCNAMGMKREAVQEE [L65N], the abundance fitness is 0.11 ± 0.092.

For KHICAICGDRSSGKHYGVYSCEGCKGFFKRTVRKDLTYTCRDNKDCLIDKRQRNRCQYCRYQKCGAMGMKREAVQEE [L65G], the abundance fitness is -0.148 ± 0.03.

With KHICAICGDRSSGKHYGVYSCEGCKGFFKRTVRKDLTYTCRDNKDCLIDKRQRNRCQYCRYQKCVAMGMKREAVQEE [L65V], the abundance fitness is 0.033 ± 0.032.

With KHICAICGDRSSGKHYGVYSCEGCKGFFKRTVRKDLTYTCRDNKDCLIDKRQRNRCQYCRYQKCIAMGMKREAVQEE [L65I], the abundance fitness was -0.132 ± 0.077.

As to KHICAICGDRSSGKHYGVYSCEGCKGFFKRTVRKDLTYTCRDNKDCLIDKRQRNRCQYCRYQKCAAMGMKREAVQEE [L65A], the abundance fitness is -0.038 ± 0.036.

As to KHICAICGDRSSGKHYGVYSCEGCKGFFKRTVRKDLTYTCRDNKDCLIDKRQRNRCQYCRYQKCQAMGMKREAVQEE [L65Q], the abundance fitness was determined as 0.021 ± 0.053.

Take KHICAICGDRSSGKHYGVYSCEGCKGFFKRTVRKDLTYTCRDNKDCLIDKRQRNRCQVCRYQKCLAMGMKREAVQEE [Y58V]: the abundance fitness is -0.311 ± 0.037.

KHICAICGDRSSGKHYGVYSCEGCKGFFKRTVRKDLTYTCRDNKDCLIDKRQRNRCQYCRYQKCLLMGMKREAVQEE [A66L]: the abundance fitness stood at 0.047 ± 0.028.

As to KHICAICGDRSSGKHYGVYSCEGCKGFFKRTVRKDLTYTCRDNKDCLIDKRQRNRCQYCRYQKCLDMGMKREAVQEE [A66D], the abundance fitness was determined as 0.031 ± 0.035.

As for KHICAICGDRSSGKHYGVYSCEGCKGFFKRTVRKDLTYTCRDNKDCLIDKRQRNRCQYCRYQKCLTMGMKREAVQEE [A66T], the abundance fitness was 0.002 ± 0.034.

As to KHICAICGDRSSGKHYGVYSCEGCKGFFKRTVRKDLTYTCRDNKDCLIDKRQRNRCQYCRYQKCLHMGMKREAVQEE [A66H], the abundance fitness is 0.045 ± 0.034.

With KHICAICGDRSSGKHYGVYSCEGCKGFFKRTVRKDLTYTCRDNKDCLIDKRQRNRCQYCRYQKCLIMGMKREAVQEE [A66I], the abundance fitness is -0.032 ± 0.035.

As for KHICAICGDRSSGKHYGVYSCEGCKGFFKRTVRKDLTYTCRDNKDCLIDKRQRNRCQYCRYQKCLFMGMKREAVQEE [A66F], the abundance fitness is 0.015 ± 0.034.

As to KHICAICGDRSSGKHYGVYSCEGCKGFFKRTVRKDLTYTCRDNKDCLIDKRQRNRCQYCRYQKCLEMGMKREAVQEE [A66E], the abundance fitness stood at 0.033 ± 0.045.

Regarding KHICAICGDRSSGKHYGVYSCEGCKGFFKRTVRKDLTYTCRDNKDCLIDKRQRNRCQYCRYQKCLWMGMKREAVQEE [A66W], the abundance fitness is -0.063 ± 0.046.

For KHICAICGDRSSGKHYGVYSCEGCKGFFKRTVRKDLTYTCRDNKDCLIDKRQRNRCQYCRYQKCLVMGMKREAVQEE [A66V], the abundance fitness worked out at 0.029 ± 0.033.

For the variant KHICAICGDRSSGKHYGVYSCEGCKGFFKRTVRKDLTYTCRDNKDCLIDKRQRNRCQYCRYQKCLGMGMKREAVQEE [A66G], the abundance fitness stood at 0.017 ± 0.036.

In the case of KHICAICGDRSSGKHYGVYSCEGCKGFFKRTVRKDLTYTCRDNKDCLIDKRQRNRCQYCRYQKCLSMGMKREAVQEE [A66S], the abundance fitness is 0.015 ± 0.027.

As to KHICAICGDRSSGKHYGVYSCEGCKGFFKRTVRKDLTYTCRDNKDCLIDKRQRNRCQYCRYQKCLKMGMKREAVQEE [A66K], the abundance fitness amounted to 0.045 ± 0.047.

With KHICAICGDRSSGKHYGVYSCEGCKGFFKRTVRKDLTYTCRDNKDCLIDKRQRNRCQYCRYQKCLRMGMKREAVQEE [A66R], the abundance fitness was -0.019 ± 0.03.

Take KHICAICGDRSSGKHYGVYSCEGCKGFFKRTVRKDLTYTCRDNKDCLIDKRQRNRCQYCRYQKCLQMGMKREAVQEE [A66Q]: the abundance fitness was -0.031 ± 0.045.

As to KHICAICGDRSSGKHYGVYSCEGCKGFFKRTVRKDLTYTCRDNKDCLIDKRQRNRCQYCRYQKCLMMGMKREAVQEE [A66M], the abundance fitness was -0.042 ± 0.042.

With KHICAICGDRSSGKHYGVYSCEGCKGFFKRTVRKDLTYTCRDNKDCLIDKRQRNRCQYCRYQKCLNMGMKREAVQEE [A66N], the abundance fitness is -0.005 ± 0.036.

Turning to KHICAICGDRSSGKHYGVYSCEGCKGFFKRTVRKDLTYTCRDNKDCLIDKRQRNRCQYCRYQKCLCMGMKREAVQEE [A66C], the abundance fitness is -0.099 ± 0.036.
